Measured values reported in US20240116985A1 (published 2024).
Values belong to the binder of their own block, whether it stands above or below them. Starred links: 1 amine or outer side, 2 acyl side, 3 side chain; linkers in the order of their positions; H or OH if unused. Positions of bridges follow the written chain, without caps; N, C: chain ends. Non-standard residues stand in square brackets, D forms with d. Primed or numbered codes have the meaning given here. No end group written: not given here. (Pfbn)GA = (S)-2-amino-3-((carboxymethyl)((perfluorophenyl)methyl)amino)propanoic acid, O=C([C@H](CN(CC(=O)[*:3])Cc1c(F)c(F)c(F)c(F)c1F)N[*:1])[*:2]; PyrS2″ = (S)-3-amino-1-((pent-4-en-1-yloxy)carbonyl)pyrrolidine-3-carboxylic acid (stapling residue), C=CCCCOC(=O)N1CC[C@@](N[*:1])(C(=O)[*:2])C1; B5(16) = 2-amino-2-(pent-4-en-1-yl)hept-6-enoic acid = 2,2-bis(4-pentenyl)glycine (stitching residue), C=CCCCC(CCCC=C)(N[*:1])C(=O)[*:2]; B5(4) = 2,2-bis(4-pentenyl)glycine = 2-amino-2-(pent-4-en-1-yl)hept-6-enoic acid (stitching residue), C=CCCCC(CCCC=C)(N[*:1])C(=O)[*:2]; (Tfp)GA″ = (S)-2-amino-3-((carboxymethyl)(3,3,3-trifluoropropyl)amino)propanoic acid, O=C([C@H](CN(CCC(F)(F)F)CC(=O)[*:3])N[*:1])[*:2]; (sBu)GA = [sBu]GA: (2S)-2-amino-3-(sec-butyl(carboxymethyl)amino)propanoic acid, CCC(C)N(CC(=O)[*:3])C[C@H](N[*:1])C(=O)[*:2]; PyrS2 = (S)-3-amino-1-((pent-4-en-1-yloxy)carbonyl)pyrrolidine-3-carboxylic acid, C=CCCCOC(=O)N1CC[C@@](N[*:1])(C(=O)[*:2])C1; (Me)GA″ = [Me]GA: (S)-2-amino-3-((carboxymethyl)(methyl)amino)propanoic acid, CN(CC(=O)[*:3])C[C@H](N[*:1])C(=O)[*:2]; (Et)GA = [Et]GA: (S)-2-amino-3-((carboxymethyl)(ethyl)amino)propanoic acid, CCN(CC(=O)[*:3])C[C@H](N[*:1])C(=O)[*:2]; (Bn)GA = (S)-2-amino-3-(benzyl(carboxymethyl)amino)propanoic acid, O=C([C@H](CN(CC(=O)[*:3])Cc1ccccc1)N[*:1])[*:2]; B5(3) = 2,2-bis(4-pentenyl)glycine (stitching residue), C=CCCCC(CCCC=C)(N[*:1])C(=O)[*:2]; Phe(2-Br) = N[C@@H](Cc1ccccc1Br)C(=O)O; Phe(2-Cl) = N[C@@H](Cc1ccccc1Cl)C(=O)O; Phe(2-OMe) = COc1ccccc1C[C@H](N)C(=O)O; 1Nal = N[C@@H](Cc1cccc2ccccc12)C(=O)O; Phe(2-F) = N[C@@H](Cc1ccccc1F)C(=O)O; Phe(2-Me) = Cc1ccccc1C[C@H](N)C(=O)O; Bta = N[C@@H](Cc1csc2ccccc12)C(=O)O; Lys(iPr) = CC(C)NCCCC[C@H](N)C(=O)O; αAllylPro = C=CC[C@@]1(C(=O)O)CCCN1; tBuAla = CC(C)(C)C[C@H](N)C(=O)O; 3Thi = N[C@@H](Cc1ccsc1)C(=O)O; S8 = C=CCCCCCC[C@](C)(N)C(=O)O; Thr(ol) = C[C@@H](O)[C@H](N)CO; PyrS2(4) = not defined here

Columns and labels:
Experiment in all cases: cell-based or functional assay
B-cat-Halo [1] = molecular target: T1, B-cat-Halo (UniProt P35222 1-781)
T1 sequence (looked up): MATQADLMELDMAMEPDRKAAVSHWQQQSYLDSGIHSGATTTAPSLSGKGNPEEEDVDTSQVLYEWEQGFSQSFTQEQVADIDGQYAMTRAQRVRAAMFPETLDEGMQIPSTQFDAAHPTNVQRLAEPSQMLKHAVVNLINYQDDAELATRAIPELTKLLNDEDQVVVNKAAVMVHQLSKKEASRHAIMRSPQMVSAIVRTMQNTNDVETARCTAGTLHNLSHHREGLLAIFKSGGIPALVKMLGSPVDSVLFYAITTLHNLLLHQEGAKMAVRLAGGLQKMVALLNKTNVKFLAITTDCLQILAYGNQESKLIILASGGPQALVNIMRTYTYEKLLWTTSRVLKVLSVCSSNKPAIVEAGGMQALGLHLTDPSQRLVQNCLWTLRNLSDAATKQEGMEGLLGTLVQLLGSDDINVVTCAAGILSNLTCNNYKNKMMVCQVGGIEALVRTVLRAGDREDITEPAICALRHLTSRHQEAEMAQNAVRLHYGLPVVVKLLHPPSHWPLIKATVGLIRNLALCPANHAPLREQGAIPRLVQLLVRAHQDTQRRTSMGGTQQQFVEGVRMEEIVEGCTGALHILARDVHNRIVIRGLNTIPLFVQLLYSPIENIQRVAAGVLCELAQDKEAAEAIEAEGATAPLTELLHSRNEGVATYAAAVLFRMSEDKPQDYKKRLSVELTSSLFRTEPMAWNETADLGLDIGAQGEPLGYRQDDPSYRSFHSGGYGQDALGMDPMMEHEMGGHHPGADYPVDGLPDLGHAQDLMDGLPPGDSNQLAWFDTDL

B-cat-Halo [2] = molecular target: T2, B-cat-Halo (UniProt P35222 1-781); remark: listed apart in the source
T2 sequence (looked up): T1 sequence (looked up)

B-cat-Halo [3] = molecular target: T3, B-cat-Halo (UniProt P35222 1-781); remark: listed apart in the source
T3 sequence (looked up): T1 sequence (looked up)

B1: I-792 (peptide)
peptide: Ac-[αAllylPro]D[tBuAla][B5(3)]DDAAFN[PyrS2][3Thi]WH-NH2
modifications: staple 1-4, 4-11
NanoBRET Abs IC50 (B-cat-Halo [1]): > 20 µM

B2: I-1315 (peptide)
peptide: Ac-[αAllylPro]D[tBuAla][B5(4)]DDAAFL[PyrS2″][2cbmF][Bta]Q-NH2
modifications: staple 1-4, 4-11
NanoBRET Abs IC50 (B-cat-Halo [2]): 7.2 µM

B3: I-1313 (peptide)
peptide: Ac-[αAllylPro]D[tBuAla][B5(4)]DD[Lys(iPr)]AFL[PyrS2″][Phe(2-Cl)][Bta][Thr(ol)]
modifications: staple 1-4, 4-11
NanoBRET Abs IC50 (B-cat-Halo [2]): 51.4 µM

B4: I-793 (peptide)
peptide: Ac-[αAllylPro]D[tBuAla][B5(3)]DDAAFN[PyrS2][Bta][Bta]H-NH2
modifications: staple 1-4, 4-11
NanoBRET Abs IC50 (B-cat-Halo [1]): > 20 µM

B8: I-1325 (peptide)
peptide: [αAllylPro]D[tBuAla][B5(4)]DDAAFF[PyrS2″][Phe(2-Br)][Bta]Q-NH2
modifications: staple 1-4, 4-11
NanoBRET Abs IC50 (B-cat-Halo [2]): 5.7 µM

B9: I-1324 (peptide)
peptide: [αAllylPro]D[tBuAla][B5(4)]DDAAFL[PyrS2″][Phe(2-Br)][Bta]Q-NH2
modifications: staple 1-4, 4-11
NanoBRET Abs IC50 (B-cat-Halo [2]): 5.8 µM

B17: I-789 (peptide)
peptide: Ac-[αAllylPro]D[tBuAla][B5(3)]DDAAFN[PyrS2][3Thi][1Nal]H-NH2
modifications: staple 1-4, 4-11
NanoBRET Abs IC50 (B-cat-Halo [1]): > 20 µM

B18: I-1322 (peptide)
peptide: Ac-[αAllylPro]D[tBuAla][B5(4)]DDAAFF[PyrS2″][Phe(2-F)][Bta]Q-NH2
modifications: staple 1-4, 4-11
NanoBRET Abs IC50 (B-cat-Halo [2]): 9.1 µM

The next lines start with the values.

NanoBRET Abs IC50 (B-cat-Halo [3]): 30.1 µM
B5: I-1631 (peptide)
peptide: Ac-[αAllylPro]D[tBuAla][B5(3)]D[(Me)GA″]AAFL[PyrS2″][3Thi][Bta]Q-NH2
modifications: staple 1-4, 4-11

NanoBRET Abs IC50 (B-cat-Halo [3]): 20.6 µM
B6: I-1635 (peptide)
peptide: Ac-[αAllylPro]D[tBuAla][B5(3)]D[(Bn)GA]AAFN[PyrS2][3Thi][Bta]Q-NH2
modifications: staple 1-4, 4-11

NanoBRET Abs IC50 (B-cat-Halo [3]): > 20 µM
B7: I-1637 (peptide)
peptide: Ac-[αAllylPro]D[tBuAla][B5(16)]D[(Me)GA]AAFN[PyrS2(4)][3Thi][Bta]Q-NH2
modifications: staple 1-4, 4-11; not fully specified; printed as Ac-PL3-Asp-Npg-B5-Asp-[Me]GA-Ala-Ala-Phe-Asn-PyrS2-3Thi-BztA-Gln-NH2; reading uncertain

NanoBRET Abs IC50 (B-cat-Halo [3]): 27.7 µM
B10: I-1623 (peptide)
peptide: Ac-[αAllylPro]D[tBuAla][B5(3)]D[(sBu)GA]AAFN[PyrS2″][Phe(2-Cl)][Bta]Q-NH2
modifications: staple 1-4, 4-11

NanoBRET Abs IC50 (B-cat-Halo [2]): 6.2 µM
B11: I-1326 (peptide)
peptide: [αAllylPro]D[tBuAla][B5(4)]DDAAFF[PyrS2″][Phe(2-Me)][Bta]Q-NH2
modifications: staple 1-4, 4-11

NanoBRET Abs IC50 (B-cat-Halo [3]): 5.2 µM
B12: I-1633 (peptide)
peptide: Ac-[αAllylPro]D[tBuAla][B5(3)]D[(Tfp)GA″]AAFL[PyrS2][3Thi][Bta]Q-NH2
modifications: staple 1-4, 4-11

NanoBRET Abs IC50 (B-cat-Halo [3]): > 20 µM
B13: I-1622 (peptide)
peptide: Ac-[αAllylPro]D[tBuAla][B5(3)]D[(Et)GA]AAFN[PyrS2(4)][Phe(2-Cl)][Bta]Q-NH2
modifications: staple 1-4, 4-11; not fully specified; printed as Ac-PL3-Asp-Npg-B5-Asp-[Et]GA-Ala-Ala-Phe-Asn-PyrS2-2C1F-BztA-Gln-NH2; reading uncertain

NanoBRET Abs IC50 (B-cat-Halo [3]): > 20 µM
B14: I-1627 (peptide)
peptide: Ac-[αAllylPro]D[tBuAla][B5(3)]D[(Et)GA]AAFN[S8][3Thi][Bta]Q-NH2
modifications: staple 1-4, 4-11; also: earlier eluting staple isomer

NanoBRET Abs IC50 (B-cat-Halo [3]): 14.5 µM
B15: I-1638 (peptide)
peptide: Ac-[αAllylPro]D[tBuAla][B5(16)]D[(Pfbn)GA]AAFN[PyrS2][3Thi][Bta]Q-NH2
modifications: staple 1-4, 4-11

NanoBRET Abs IC50 (B-cat-Halo [2]): 7 µM
B16: I-1327 (peptide)
peptide: [αAllylPro]D[tBuAla][B5(4)]DDAAFL[PyrS2″][Phe(2-OMe)][Bta]Q-NH2
modifications: staple 1-4, 4-11
